In paper PMC9482650, “Quantitative fragmentomics allow affinity mapping of interactomes” (Nature Communications, 2022):

Legend:
HEK293T cells = assay: Label-free MS proteome of stable cell lines expressing HPV16 E6 or E6ΔPBM; assay type: cell-based, human; conditions: protein level
Procedure: HEK293T and HeLa cells were authenticated and found 100% identity to ATCC cat. CRL-3216 and ATCC cat. CCL-2, respectively. Jurkat and HaCat cell lines were not authenticated (original source: ECACC and Deutsches Krebsforschungszentrum DKFZ, respectively). HeLa cells were grown in DMEM (1 g/L glucose, Gibco) medium completed with 5% FCS and 40 μg/mL gentamicin, diluted every 3rd/4th day 1/10. HaCat cells were grown in DMEM (1 g/L glucose, Gibco) medium completed with 10% FCS and 40 μg/mL gentamicin, diluted every 3rd/4th day 1/4. Jurkat cells were grown in RPMI (Gibco) medium completed with 10% FCS and 40 μg/mL gentamicin, diluted every 3rd/4th day 1/12. All cells were kept at 37 °C and 5% CO2. For proteomics analyses cells were seeded on T-175 flasks. After they reached confluency, adherent cells were washed with PBS once and collected by scraping with ice-cold lysis buffer (Hepes-KOH pH 7.5 50 mM, NaCl 150 mM, Triton X-100 1%, complete EDTA-free protease inhibitor cocktail 1×, EDTA 2 mM, TCEP 5 mM, glycerol 10%). Jurkat cells were collected by 1000 g × centrifugation, washed once with PBS, then collected by 1000 g × 5 min centrifugation again and lysed in ice-cold lysis buffer. Lysates were sonicated 4 × 20 s with 1 s long pulses on ice, then incubated rotating at 4 °C for 30 min. Lysates were centrifuged at 12,000 rpm 4 °C for 20 min and supernatant was kept for further analysis. Concentration determination was carried out by standard Bradford method (Bio-Rad Protein Assay Dye Reagent #5000006) using BSA (MP BIomedicals #160069) as control on a Bio-Rad SmartSpec 3000 spectrophotometer instrument.
(§1) The samples were precipitated with TCA 20% overnight at 4 °C and centrifuged at 14,000 rpm for 10 min at 4 °C. The protein pellets were washed twice with 1 mL cold acetone and air dried. The protein extracts were solubilized in urea 8 M, reduced with 5 mM TCEP for 30 min, and alkylated with 10 mM iodoacetamide for 30 min in the dark. Double digestion was performed at 37 °C with 500 ng endoproteinase Lys-C for 4 h, followed by fourfold dilution and an overnight digestion with 500 ng trypsin. Peptide mixtures were then desalted on C18 spin-column and dried on Speed-Vacuum.
(§2) Samples were analyzed using an Ultimate 3000 nano-RSLC (Thermo Scientific, San Jose California) coupled in line with a LTQ-Orbitrap ELITE mass spectrometer via a nano-electrospray ionization source (Thermo Scientific, San Jose California). Peptide mixtures were injected in 0.1% TFA on a C18 Acclaim PepMap100 trap-column (75 µm ID × 2 cm, 3 µm, 100 Å, Thermo Fisher Scientific) for 3 min at 5 µL/min with 2% ACN, 0.1% FA in H2O and then separated on a C18 Accucore nano-column (75 µm ID × 50 cm, 2.6 µm, 150 Å, Thermo Fisher Scientific) at 220 nl/min and 38 °C with a 90 min linear gradient from 5% to 30% buffer B (A: 0.1% FA in H2O/B: 99% ACN, 0.1% FA in H2O), regeneration at 5% B. The mass spectrometer was operated in positive ionization mode, in data-dependent mode with survey scans from m/z 350–1500 acquired in the Orbitrap at a resolution of 120,000 at m/z 400. The 20 most intense peaks from survey scans were selected for further fragmentation in the Linear Ion Trap with an isolation window of 2.0 Da and were fragmented by CID with normalized collision energy of 35%. (TOP20CID method) Unassigned and single charged states were excluded from fragmentation. The Ion Target Value for the survey scans (in the Orbitrap) and the MS2 mode (in the Linear Ion Trap) were set to 1E6 and 5E3 respectively and the maximum injection time was set to 100 ms for both scan modes. Dynamic exclusion was set to 20 s after one repeat count with mass width at ±10 ppm.
Proteins were identified by database searching using SequestHT (Thermo Fisher Scientific) with Proteome Discoverer 2.4 software (PD2.4, Thermo Fisher Scientific) on human FASTA database downloaded from SwissProt (reviewed, release 2020_11_27, 20304 entries, https://www.uniprot.org/). […]

HeLa cell extract preys = assay: PDZ-AP-MS, biotinylated MBP-PDZ baits; assay type: binding, human; conditions: for Ratio: fold enrichment of prey; for Difference: log2 enrichment of prey
Procedure: (§3) For PDZ-AP-MS experiments, PDZ domains were cloned as His6-AviTag-MBP-PDZ constructs. For co-expression with BirA, E. coli BL21(DE3) cells were co-transformed with His6-AviTag-MBP, or His6-AviTag-MBP-PDZ-coding and PET21a-BirA (Addgene #20857) plasmids. Simultaneously to IPTG induction, 50 µM biotin was added to the media. After cell harvesting, the lysis buffer was also supplemented with 50 µM biotin. Otherwise, expression and double affinity purification was identical as previously described in details.
(§4) For PBM-AP-MS experiments, 30 μl streptavidin resin was mixed with biotin or peptide at 50–60 μM concentration in 6–6.5 resin volume for 60 min to achieve resin saturation. For PDZ-AP-MS experiments, 30 μl streptavidin resin was mixed with biotinylated MBP or MBP-PDZ at 40-50 μM concentration in >1000× resin volume for 60 min to achieve resin saturation. After saturation, resins were washed a single time (ten resin volume, holdup buffer), and were depleted with biotin (1 mM biotin, 5–10 resin volume, 10 min). Finally, resins were washed two times. 0.5 ml 2 mg/ml cell lysate was added to the dry resin (1 mg total input) and were incubated at 4 °C for 2 h. Then, the beads were washed three times with 10 resin volume buffer containing: 50 mM TRIS pH 8.5, 150 mM NaCl, 1% TritonX-100, 10× complete EDTA-free protease inhibitor cocktail, 2 mM EDTA, 1 mM TCEP. Then, the beads were washed two times with ten resin volume buffer containing: 50 mM TRIS pH 8.5, 150 mM NaCl, 1 mM TCEP. Finally, captured protein was eluted from the resin in two steps and the eluted fractions were pooled. For each elution the beads were incubated for 30 min with three resin volume buffer containing: 20 mM TRIS pH8.5, 100 mM NaCl, 500 μM TCEP, 8 M Urea. Between each step, the beads were separated by mild centrifugation and the supernatant was removed by gentle pipetting.
as §1
as §2, with “ppm. […]” for “ppm.”

HaCat cell extract preys = assay: PDZ-AP-MS, biotinylated MBP-PDZ baits; assay type: binding, human; conditions: for Difference log2: enrichment of prey
Procedure: as §3, §4, §1
as §2, with “ppm. […]” for “ppm.”

B1: PGP (protein, UniProt A6NDG6 1-321, looked up)
Glycerol-3-phosphate …: MAAAEAGGDDARCVRLSAERAQALLADVDTLLFDCDGVLWRGETAVPGAPEALRALRARGKRLGFITNNSSKTRAAYAEKLRRLGFGGPAGPGASLEVFGTAYCTALYLRQRLAGAPAPKAYVLGSPALAAELEAVGVASVGVGPEPLQGEGPGDWLHAPLEPDVRAVVVGFDPHFSYMKLTKALRYLQQPGCLLVGTNMDNRLPLENGRFIAGTGCLVRAVEMAAQRQADIIGKPSRFIFDCVSQEYGINPERTVMVGDRLDTDILLGATCGLKTILTLTGVSTLGDVKNNQESDCVSKKKMVPDFYVDSIADLLPALQG
Difference log2 E6/Ctrl (HEK293T cells; E6 cell line vs control): 0.3606 | Ratio E6/Ctrl (HEK293T cells; E6 cell line vs control): 1.284 | Difference log2 dPBM/E6 (HEK293T cells; dPBM cell line vs E6 cell line): 0.0821 | Ratio dPBM/E6 (HEK293T cells; dPBM cell line vs E6 cell line): 1.059 | Difference log2 dPBM/Ctrl (HEK293T cells; dPBM cell line vs control): 0.4427 | Ratio dPBM/Ctrl (HEK293T cells; dPBM cell line vs control): 1.359

B2: NONO (protein, UniProt Q15233 1-471, looked up)
Non-POU domain-containing …: MQSNKTFNLEKQNHTPRKHHQHHHQQQHHQQQQQQPPPPPIPANGQQASSQNEGLTIDLKNFRKPGEKTFTQRSRLFVGNLPPDITEEEMRKLFEKYGKAGEVFIHKDKGFGFIRLETRTLAEIAKVELDNMPLRGKQLRVRFACHSASLTVRNLPQYVSNELLEEAFSVFGQVERAVVIVDDRGRPSGKGIVEFSGKPAARKALDRCSEGSFLLTTFPRPVTVEPMDQLDDEEGLPEKLVIKNQQFHKEREQPPRFAQPGSFEYEYAMRWKALIEMEKQQQDQVDRNIKEAREKLEMEMEAARHEHQVMLMRQDLMRRQEELRRMEELHNQEVQKRKQLELRQEEERRRREEEMRRQQEEMMRRQQEGFKGTFPDAREQEIRMGQMAMGGAMGINNRGAMPPAPVPAGTPAPPGPATMMPDGTLGLTPPTTERFGQAATMEGIGAIGGTPPAFNRAAPGAEFAPNKRRRY
Ratio (HeLa cell extract preys; bait DLG1_1 PDZ vs MBP control): 31.101 | Difference (HeLa cell extract preys; bait DLG1_1 PDZ vs MBP control): 4.959 | Difference (HeLa cell extract preys; bait SCRIB_2 PDZ (biotinylated MBP-PDZ) vs MBP control): 4.7577 | Ratio (HeLa cell extract preys; bait SCRIB_2 PDZ vs MBP control): 27.0527

B3: CDH1 (protein, UniProt P12830 155-882, looked up)
Cadherin-1: DWVIPPISCPENEKGPFPKNLVQIKSNKDKEGKVFYSITGQGADTPPVGVFIIERETGWLKVTEPLDRERIATYTLFSHAVSSNGNAVEDPMEILITVTDQNDNKPEFTQEVFKGSVMEGALPGTSVMEVTATDADDDVNTYNAAIAYTILSQDPELPDKNMFTINRNTGVISVVTTGLDRESFPTYTLVVQAADLQGEGLSTTATAVITVTDTNDNPPIFNPTTYKGQVPENEANVVITTLKVTDADAPNTPAWEAVYTILNDDGGQFVVTTNPVNNDGILKTAKGLDFEAKQQYILHVAVTNVVPFEVSLTTSTATVTVDVLDVNEAPIFVPPEKRVEVSEDFGVGQEITSYTAQEPDTFMEQKITYRIWRDTANWLEINPDTGAISTRAELDREDFEHVKNSTYTALIIATDNGSPVATGTGTLLLILSDVNDNAPIPEPRTIFFCERNPKPQVINIIDADLPPNTSPFTAELTHGASANWTIQYNDPTQESIILKPKMALEVGDYKINLKLMDNQNKDQVTTLEVSVCDCEGAAGVCRKAQPVEAGLQIPAILGILGGILALLILILLLLLFLRRRAVVKEPLLPPEDDTRDNVYYYDEEGGGEEDQDFDLSQLHRGLDARPEVTRNDVAPTLMSVPRYLPRPANPDEIGNFIDENLKAADTDPTAPPYDSLLVFDYEGSGSEAASLSSLNSSESDKDQDYDYLNEWGNRFKKLADMYGGGEDD
Difference log2 (HaCat cell extract preys; bait TX1BP3 PDZ vs MBP): 8.222 | Ratio TX1BP3/MBP (HaCat cell extract preys; bait TX1BP3 PDZ, fold change of prey): 298.682

B4: BAIAP2L1 (protein, UniProt Q9UHR4 1-511, looked up)
BAR/IMD domain-containing …: MSRGPEEVNRLTESTYRNVMEQFNPGLRNLINLGKNYEKAVNAMILAGKAYYDGVAKIGEIATGSPVSTELGHVLIEISSTHKKLNESLDENFKKFHKEIIHELEKKIELDVKYMNATLKRYQTEHKNKLESLEKSQAELKKIRRKSQGSRNALKYEHKEIEYVETVTSRQSEIQKFIADGCKEALLEEKRRFCFLVDKHCGFANHIHYYHLQSAELLNSKLPRWQETCVDAIKVPEKIMNMIEEIKTPASTPVSGTPQASPMIERSNVVRKDYDTLSKCSPKMPPAPSGRAYTSPLIDMFNNPATAAPNSQRVNNSTGTSEDPSLQRSVSVATGLNMMKKQKVKTIFPHTAGSNKTLLSFAQGDVITLLIPEEKDGWLYGEHDVSKARGWFPSSYTKLLEENETEAVTVPTPSPTPVRSISTVNLSENSSVVIPPPDYLECLSMGAAADRRADSARTTSTFKAPASKPETAAPNDANGTAKPPFLSGENPFATVKLRPTVTNDRSAPIIR
Difference log2 (HaCat cell extract preys; bait SCRIB_2 PDZ vs MBP): 3.855 | Ratio SCRIB_2/MBP (HaCat cell extract preys; bait SCRIB_2 PDZ, fold change of prey): 14.4736
